# Experimental data: patent publication US20140213531A1
# B1: Example 93 (peptide)
# peptide: XCTASIPPQCS
# HELM: PEPTIDE1{[Nle].C.T.A.S.I.P.P.Q.C.S.[dP].P}$PEPTIDE1,PEPTIDE1,2:R3-10:R3|PEPTIDE1,PEPTIDE1,1:R1-13:R2$$$V2.0
# SMILES: CCCC[C@@H]1NC(=O)[C@@H]2CCCN2C(=O)[C@H]2CCCN2C(=O)[C@H](CO)NC(=O)[C@@H]2CSSC[C@H](NC1=O)C(=O)N[C@@H]([C@@H](C)O)C(=O)N[C@@H](C)C(=O)N[C@@H](CO)C(=O)N[C@@H]([C@@H](C)CC)C(=O)N1CCC[C@H]1C(=O)N1CCC[C@H]1C(=O)N[C@@H](CCC(N)=O)C(=O)N2
# Target: Tryptase, from human lung (human) (UniProt Q15661)
# Assay: enzyme inhibition, pNA substrate
# Chain of Tryptase, from human lung (human) (Q15661 31-275 limits assumed): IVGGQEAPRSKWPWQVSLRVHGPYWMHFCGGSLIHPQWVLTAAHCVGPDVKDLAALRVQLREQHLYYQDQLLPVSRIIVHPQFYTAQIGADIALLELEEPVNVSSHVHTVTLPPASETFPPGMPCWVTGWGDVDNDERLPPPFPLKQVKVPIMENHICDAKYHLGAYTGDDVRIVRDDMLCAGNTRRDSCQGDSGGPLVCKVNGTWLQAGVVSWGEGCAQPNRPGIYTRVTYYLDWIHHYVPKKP
binder,measurement,value
B1,% inhibition at 100 µM,5.6%
